This is an account of results in patent publication US20170211067, “ANTAGONISTIC CTLA-4 APTAMERS AND APPLICATIONS THEREOF IN ENHANCING IMMUNE ACTIVITY” (Academia Sinica, published 2017).

The target of data set [1] is T1, CTLA-4 (UniProt P16410 P16410:36-161). In words: CTLA-4 stably expressing 293 cells; no binding to non-transfected 293T by flow at 10 nM. The note with it: tags: expressed on CTLA-4-transfected 293T / stably expressing 293 cells; label: AlexaFluor 647 (flow cytometry). The procedure: (§1) Panels A and B are FACS analysis diagrams showing the binding activities of selected aptamers to CTLA-4 expressed on wild-type 293T cells. […] The cells of panel A and panel B were incubated with 10 nM of AlexaFluor 647 labeled CA7, CA21, CA32 and CA82 aptamer as indicated. After washing away the unbounded aptamer, the fluorescent signals were measured by flow cytometry and the results of wild-type 293T cells are shown in panel A. The results for CTLA-4 expressing wild-type 293T cells are shown in panel B. Panels C, D, E and F show the CTLA-4 binding affinity of the aptamers CA7, CA21, CA32 and CA82, respectively. The four aptamers were selected and characterized for their binding affinity against CTLA-4 expressing cells. These aptamers were first synthesized and followed by 2-fold serial dilution which started from 250 nM. Six dosage points were analyzed after incubation of the selected pool with CTLA-4 stably expressed 293 cells.
T1 sequence (P16410 36-161, one chain of several): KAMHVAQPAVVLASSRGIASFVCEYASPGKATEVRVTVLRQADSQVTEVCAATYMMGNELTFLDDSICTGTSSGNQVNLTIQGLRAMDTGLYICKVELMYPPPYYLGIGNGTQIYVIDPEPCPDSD
(§2) Four aptamers (CA7, CA21, CA32 and CA82) isolated by the method described in Example 1 were selected by their higher structural stability. The binding specificity of these four aptamers were analyzed by flow cytometry. All four of these apatmers specifically recognized CTLA-4-expressing cells, except a relatively low non-specific binding signal in CA7 against wild type 293 cells (FIG. 2, panels A and B). […]

Data set [2] has as its target CTLA-4 (Mus musculus, UniProt P09793 P09793:36-161). In words: CA21 stated to cross-react with mouse CTLA-4, assay not described. The note with it: label: AlexaFluor 647 (flow cytometry).
The target of data set [3] is T1, CTLA-4. In words: CTLA-4 stably expressing 293 cells, 2-fold dilutions from 250 nM; no binding to non-transfected 293T by flow at 10 nM. The conditions noted are these: tags: expressed on CTLA-4-transfected 293T / stably expressing 293 cells; label: AlexaFluor 647 (flow cytometry); possible G-quadruplex; Mfold secondary structure dG -10.6. The procedure:
as §1, §2

Sequence of CTLA-4 (Mus musculus, UniProt P09793 P09793:36-161) (P09793 36-161, one chain of several): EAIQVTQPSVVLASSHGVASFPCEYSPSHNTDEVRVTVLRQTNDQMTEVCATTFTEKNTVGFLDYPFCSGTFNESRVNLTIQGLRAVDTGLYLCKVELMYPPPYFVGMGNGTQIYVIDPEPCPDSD

B1: CA82 (ssDNA)
DNA: TCCCTACGGCGCTAACCGATCGAAAATGTCCAGGGAGTTGTCTGTAGCCACCGTGCTACAAC
B1: binding with CTLA-4 [1] was characterised by a dissociation constant (Kd) of 36.5 nM.

B2: CA21 (ssDNA)
DNA: TCCCTACGGCGCTAACGATGGTGAAAATGGGCCTAGGGTGGACGGTGCCACCGTGCTACAAC
As for B2, the binding result with CTLA-4 [2] is listed as “binds”. The molecule further yielded a Kd in the data set with CTLA-4 [3] of 11.8 nM.

B3: CA32 (ssDNA)
DNA: TCCCTACGGCGCTAACGTCCACACTCAGAAAACAGAATAGGGGGTAGCCACCGTGCTACAAC
B3 returned a Kd with CTLA-4 [1] of 61.8 nM.
